Test results as given in patent publication US20200317768A1 (published 2020).
Changes are numbered by the printed parent chain.

B1: MS_M103205H795-SG1/M103202L889-SK1 (antibody, human IgG1, kappa)
heavy: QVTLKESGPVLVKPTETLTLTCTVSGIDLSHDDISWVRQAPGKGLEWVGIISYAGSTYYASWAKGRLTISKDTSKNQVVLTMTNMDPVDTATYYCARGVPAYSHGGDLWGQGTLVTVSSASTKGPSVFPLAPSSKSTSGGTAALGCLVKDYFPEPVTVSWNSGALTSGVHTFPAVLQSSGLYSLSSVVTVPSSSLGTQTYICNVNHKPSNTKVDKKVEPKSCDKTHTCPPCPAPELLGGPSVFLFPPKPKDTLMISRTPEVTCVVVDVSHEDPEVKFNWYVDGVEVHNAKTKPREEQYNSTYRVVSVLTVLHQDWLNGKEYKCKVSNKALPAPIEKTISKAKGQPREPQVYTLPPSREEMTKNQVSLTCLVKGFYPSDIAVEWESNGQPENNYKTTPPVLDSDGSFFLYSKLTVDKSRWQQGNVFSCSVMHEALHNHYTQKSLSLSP
light: DIVMTQSPATLSLSPGERATLSCTSSQSVYHANWLSWFQQKPGQPPKLLIYWASTLAYGVPSRFSGSGSGTDFTLTISSLQPEDAATYYCAGGYGGGRYAFGQGTKVEIKRTVAAPSVFIFPPSDEQLKSGTASVVCLLNNFYPREAKVQWKVDNALQSGNSQESVTEQDSKDSTYSLSSTLTLSKADYEKHKVYACEVTHQGLSSPVTKSFNRGEC
notes: Parent antibody; also called MS1032LO06-SG1
B2: M103205H795-MY213/M103202L889-SK1 (antibody, human IgG1, kappa)
heavy: QVTLKESGPVLVKPTETLTLTCTVSGIDLSHDDISWVRQAPGKGLEWVGIISYAGSTYYASWAKGRLTISKDTSKNQVVLTMTNMDPVDTATYYCARGVPAYSHGGDLWGQGTLVTVSSASTKGPSVFPLAPSSKSTSGGTAALGCLVKDYFPEPVTVSWNSGALTSGVHTFPAVLQSSGLYSLSSVVTVPSSSLGTQTYICNVNHKPSNTKVDKKVEPKSCDKTHTCPPCPAPELLNGPSVFLFPPKPKDTLMISRTPEVTCVVVDVSDEDPEVKFNWYVDGVEVHNAKTKPREEQYNSTYRVVSVLTVLHQDWLNGKEYKCKVSNKALPKPIEKTISKAKGQPREPQVYTLPPSREEMTKNQVSLTCLVKGFYPSDIAVEWESNGQPENNYKTTPKVLDSDGSFFLYSKLTVDKSRWQQGNVFSCSVMHEALHNHYTQKSLSLSP
light: B1 light
B3: M103205H795-MY269/M103202L889-SK1 (antibody, human IgG1, kappa)
heavy: B2 heavy with N238M
light: B1 light
B4: M103205H795-MY143/M103202L889-SK1 (antibody, human IgG1, kappa)
heavy: B2 heavy with N238S, D270E, K332A, K398M
light: B1 light
B5: M103205H795-MY142/M103202L889-SK1 (antibody, human IgG1, kappa)
heavy: B2 heavy with N238E, D270E, K332A, K398M
light: B1 light
B6: M103205H795-MY227/M103202L889-SK1 (antibody, human IgG1, kappa)
heavy: B2 heavy with N238G, G239Y
light: B1 light
B7: M103205H795-MY242/M103202L889-SK1 (antibody, human IgG1, kappa)
heavy: B2 heavy with N238G, P240I
light: B1 light
B8: M103205H795-MY228/M103202L889-SK1 (antibody, human IgG1, kappa)
heavy: B2 heavy with N238G, G239Y, Q297L, K398P
light: B1 light
B9: M103205H795-MY219/M103202L889-SK1 (antibody, human IgG1, kappa)
heavy: B2 heavy with N238G, G239Y, K398P
light: B1 light
B10: M103205H795-MY209/M103202L889-SK1 (antibody, human IgG1, kappa)
heavy: B2 heavy with Q297L, K328T, K398P
light: B1 light
B11: M103205H795-MY229/M103202L889-SK1 (antibody, human IgG1, kappa)
heavy: B2 heavy with N238G, G239Y, Q297L
light: B1 light

Target: T1, human FcγRIIaR extracellular domain, C-terminal His-tag (human, UniProt P12318 34-217)
T1 construct: also called human FcγRIIa (type R); FcgRIIaR; not shown: His-tag added to C-terminus
T1 chain: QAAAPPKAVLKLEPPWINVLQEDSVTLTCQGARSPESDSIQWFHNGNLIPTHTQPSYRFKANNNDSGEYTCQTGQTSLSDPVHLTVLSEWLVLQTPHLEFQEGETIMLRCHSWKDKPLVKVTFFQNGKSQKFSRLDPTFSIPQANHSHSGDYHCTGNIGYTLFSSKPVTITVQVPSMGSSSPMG
Assay: SPR (Biacore), KD of SG1 / KD of variant;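 note: relative to parent M103205H795-SG1 carrying the SG1 human heavy chain constant region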
Protocol: (§1) The kinetic analysis of interactions between these antibodies and FcγR was carried out using BIACORE® T200 or BIACORE® 4000 (GE Healthcare). HBS-EP+ (GE Healthcare) was used as the running buffer, and the measurement temperature was set to 25° C. A chip produced by immobilizing Protein A. Protein A/G or mouse anti-human IgG kappa light chain (BD Biosciences) onto a Series S Sensor Chip CM4 or CM5 (GE Healthcare) by the amine-coupling method was used. […] After the measurement, the antibody captured on the chip was washed off by allowing reaction with 10 mM glycine-HCl, pH1.5 and 25 mM NaOH so that the chip was regenerated and used repeatedly. The sensorgrams obtained as measurement results were analyzed by the 1:1 Langmuir binding model using the BIACORE® Evaluation Software to calculate the binding rate constant ka (L/mol/s) and dissociation rate constant kd (l/s), and the dissociation constant KD (mol/L) was calculated from these values. […] Regarding such interactions, KD values were calculated using the following 1:1 binding model described in BIACORE® T100 Software Handbook BR1006-48 Edition AE.
(§2) The behavior of interacting molecules according to the 1:1 binding model on BIACORE® can be described by Equation 1: Req=C·R max/(KD+C)+RI, wherein, Req is a plot of steady-state binding levels to analyte concentration. C is concentration, RI is bulk refractive index contribution in the sample, and Rmax is analyte binding capacity of the surface. When this equation is rearranged, KD can be expressed as Equation 2: KD=C·Rmax/(Req−RI)−C. KD can be calculated by substituting the values of Rmax, RI, and C into Equation 1 or Equation 2. From the current measurement conditions, RI=0, C=2 μmol/L can be used.

Binder | KD fold (SG1 = 1)
B1 | 1 fold
B2 | 1.6 fold
B3 | 1.5 fold
B4 | 13.3 fold
B5 | 6.5 fold
B6 | 17.7 fold
B7 | 1.7 fold
B8 | 6.5 fold
B9 | 6.9 fold
B10 | 1.3 fold
B11 | 13 fold

Target: T2, cynomolgus monkey FcγRIIa2 extracellular domain, C-terminal His-tag (cynomolgus monkey)
T2 construct: also called cyno FcγRIIa2; cynoFcgRIIa2; not shown: His-tag added to C-terminus
T2 chain: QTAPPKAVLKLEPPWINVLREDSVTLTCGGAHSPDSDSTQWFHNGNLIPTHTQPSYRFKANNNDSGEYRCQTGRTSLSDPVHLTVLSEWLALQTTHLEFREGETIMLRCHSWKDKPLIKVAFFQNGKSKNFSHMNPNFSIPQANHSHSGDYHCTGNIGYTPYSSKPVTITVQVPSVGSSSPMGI
Assay: SPR (Biacore), KD of SG1 / KD of variant;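 note: relative to parent M103205H795-SG1 carrying the SG1 human heavy chain constant region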
Protocol: as §1, §2

Binder | KD fold (SG1 = 1)
B1 | 1 fold
B2 | 9.6 fold
B3 | 2 fold
B4 | 3.9 fold
B5 | 1 fold
B6 | 2 fold
B7 | 1.2 fold
B8 | 1 fold
B9 | 1.3 fold
B10 | 7.4 fold
B11 | 2.3 fold

Target: T3, cynomolgus monkey FcγRIIb extracellular domain, C-terminal His-tag (cynomolgus monkey)
T3 construct: also called cyno FcγRIIb; cynoFcγRIIb; not shown: His-tag added to C-terminus
T3 chain: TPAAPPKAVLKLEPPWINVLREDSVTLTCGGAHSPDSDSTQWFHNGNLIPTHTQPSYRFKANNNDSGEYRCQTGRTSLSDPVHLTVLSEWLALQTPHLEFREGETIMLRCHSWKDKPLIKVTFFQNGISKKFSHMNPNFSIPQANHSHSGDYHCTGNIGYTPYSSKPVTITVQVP
Assay: SPR (Biacore), KD of SG1 / KD of variant;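 note: relative to parent M103205H795-SG1 carrying the SG1 human heavy chain constant region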
Protocol: as §1, §2

Binder | KD fold (SG1 = 1)
B1 | 1 fold
B2 | 11.9 fold
B3 | 2.8 fold
B4 | 8.9 fold
B5 | 1 fold
B6 | 3.5 fold
B7 | 1.6 fold
B8 | 1.6 fold
B9 | 1.4 fold
B10 | 9.5 fold
B11 | 3.8 fold

target: T4, cynomolgus monkey FcγRIIIaS extracellular domain, C-terminal His-tag (cynomolgus monkey, UniProt A3RFZ7 21-206 (rhesus entry)); assay: SPR (Biacore), KD of SG1 / KD of variant;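 note: relative to parent M103205H795-SG1 carrying the SG1 human heavy chain constant region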
T4 construct: also called cyno FcγRIIIaS; cynoFcγRIIIaS; not shown: His-tag added to C-terminus
T4 sequence (A3RFZ7 21-206): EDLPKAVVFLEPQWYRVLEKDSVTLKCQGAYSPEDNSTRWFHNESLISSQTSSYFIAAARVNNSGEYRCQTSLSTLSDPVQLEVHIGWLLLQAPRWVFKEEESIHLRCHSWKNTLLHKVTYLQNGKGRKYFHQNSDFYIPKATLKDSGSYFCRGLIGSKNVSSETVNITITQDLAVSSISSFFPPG
Protocol: as §1, §2

Binder | KD fold (SG1 = 1)
B1 | 1 fold
B2 | 0.19 fold
B3 | 1.64 fold
B4 | 1.29 fold
B5 | 2.57 fold
B6 | 0.09 fold
B7 | 0.68 fold
B8 | 0.04 fold
B9 | 0.06 fold
B10 | 0.16 fold
B11 | 0.09 fold

Target: T5, cynomolgus monkey FcγRIIa1 extracellular domain, C-terminal His-tag (cynomolgus monkey)
T5 construct: also called cyno FcγRIIa1; cynoFcgRIIa1; not shown: His-tag added to C-terminus
T5 chain: T2 chain with T95P, A121T, K127I, S128A, N130K, N135D, Q142R
Assay: SPR (Biacore), KD of SG1 / KD of variant
Protocol: as §1, §2

Binder | KD fold (SG1 = 1)
B1 | 1 fold
B2 | 6 fold
B3 | 1.4 fold
B4 | 2.9 fold
B5 | 0.8 fold
B6 | 1.7 fold
B7 | 0.7 fold
B8 | 1.1 fold
B9 | 0.5 fold
B10 | 5.1 fold
B11 | 2 fold

target: T6, human FcγRIIIaV extracellular domain, C-terminal His-tag (human, UniProt P08637 17-208); assay: SPR (Biacore), KD of SG1 / KD of variant
T6 construct: also called FcgRIIIaV; not shown: His-tag added to C-terminus
T6 sequence (P08637 17-208 F176V): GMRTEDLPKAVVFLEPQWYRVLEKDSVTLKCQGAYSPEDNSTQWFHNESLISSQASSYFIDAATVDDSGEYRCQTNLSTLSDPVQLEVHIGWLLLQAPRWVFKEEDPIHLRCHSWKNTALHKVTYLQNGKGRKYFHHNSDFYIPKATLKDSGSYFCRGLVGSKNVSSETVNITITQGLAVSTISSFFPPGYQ
Protocol: as §1, §2

Binder | KD fold (SG1 = 1)
B1 | 1 fold
B2 | 0.03 fold
B3 | 0.74 fold
B4 | 0.52 fold
B5 | 1.4 fold
B6 | 0.04 fold
B7 | 0.25 fold
B8 | 0.02 fold
B9 | 0.03 fold
B10 | 0.06 fold
B11 | 0.02 fold

target: T7, human FcγRIIaH extracellular domain, C-terminal His-tag (human, UniProt P12318 34-217); assay: SPR (Biacore), KD of SG1 / KD of variant
T7 construct: also called human FcγRIIa (type H); FcgRIIaH; not shown: His-tag added to C-terminus
T7 sequence: T1 chain with R134H
Protocol: as §1, §2

Binder | KD fold (SG1 = 1)
B1 | 1 fold
B2 | 2 fold
B3 | 2.3 fold
B4 | 18.6 fold
B5 | 3.6 fold
B6 | 0.5 fold
B7 | 0.8 fold
B8 | 0.3 fold
B9 | 0.2 fold
B10 | 1.2 fold
B11 | 0.7 fold
